# Results from PMC3634583.
# Experiments:
# [1] = Western blot of 293T lysate, 8 kDa BNP form; conditions: glycan lost; control: wild-type pre-proBNP
# Western blot = conditions: glycan lost; control: wild-type pre-proBNP
substance,measurement,setting,value
proBNP1-108 (pro-B-type natriuretic peptide): T71A,other: proteolytic processing,[1],increases
same,other: proteolytic processing,Western blot,increases
